Measured values from paper PMC11022716.

Tests used:
rc.73-DD (mouse) = assay: SPR; BIAcore 8K, 25 °C, HBS-EP+; antibodies with mIgG-Fc captured on a CM5 chip with immobilised anti-mouse antibodies; FcγRs injected at 400 to 3.125 nM (1:2 dilutions), 30 µL/min, 90 s association, 120 s dissociation; 1:1 Langmuir model
rc.hu1-23 (mouse) = assay: as above
73 (human) = assay: SPR; BIAcore 8K, 25 °C, HBS‐EP+ buffer; antibodies with hIgG‐Fc immobilised on a Series S Protein A sensor chip at 300 RU; recombinant mouse FcγRs injected at 400 to 3.125 nM, 30 µL/min, 90 s association, 120 s dissociation; 1:1 Langmuir binding model
Sequence of 73 (human) (heavy, as listed by the source, chain 1 of 2): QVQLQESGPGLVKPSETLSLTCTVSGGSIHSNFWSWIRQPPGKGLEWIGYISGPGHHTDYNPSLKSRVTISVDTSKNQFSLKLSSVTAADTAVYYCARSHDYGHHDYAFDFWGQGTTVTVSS
Sequence of 73 (human) (light, as listed by the source, chain 2 of 2): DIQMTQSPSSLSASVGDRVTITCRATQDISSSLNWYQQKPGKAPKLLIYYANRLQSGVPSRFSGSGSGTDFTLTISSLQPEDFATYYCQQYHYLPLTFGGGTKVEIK

73‐DY (human) = assay: as above
hu1‐23 (human) = assay: as above
Sequence of hu1‐23 (human) (heavy, as listed by the source, chain 1 of 2): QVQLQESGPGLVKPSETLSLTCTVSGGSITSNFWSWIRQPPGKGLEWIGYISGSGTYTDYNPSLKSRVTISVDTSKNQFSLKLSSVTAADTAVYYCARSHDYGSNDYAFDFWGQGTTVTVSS
Sequence of hu1‐23 (human) (light, as listed by the source, chain 2 of 2): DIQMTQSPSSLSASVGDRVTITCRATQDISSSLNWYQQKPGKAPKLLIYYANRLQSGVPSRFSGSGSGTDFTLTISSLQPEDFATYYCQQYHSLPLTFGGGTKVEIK

Binder | Kd (rc.73-DD (mouse)) [nM] | Kd (rc.hu1-23 (mouse)) [nM] | Kd (73 (human)) [nM] | Kd (73‐DY (human)) [nM] | Kd (hu1‐23 (human)) [nM]
mouse FcγRII (receptor) THDLPKAVVKLEPPWIQVLKEDTVTLTCEGTHNPGNSSTQWFHNGRSIRSQVQASYTFKATVNDSGEYRCQMEQTRLSDPVDLGVISDWLLLQTPQLVFLEGETITLRCHSWRNKLLNRISFFHNEKSVRYHHYSSNFSIPKANHSHSGDYYCKGSLGRTLHQSKPVTITVQGPKSSRSLP | 2.97 | 196 | 379 | 9.72 | 300
mouse FcγRIII (receptor) ALPKAVVKLDPPWIQVLKEDMVTLMCEGTHNPGNSSTQWFHNGRSIRSQVQASYTFKATVNDSGEYRCQMEQTRLSDPVDLGVISDWLLLQTPQRVFLEGETITLRCHSWRNKLLNRISFFHNEKSVRYHHYKSNFSIPKANHSHSGDYYCKGSLGSTQHQSKPVTITVQDPATTSSISLVWYHT | 11.8 | 2680 | – | 12 | 233
mouse FcγRI (receptor) EVVNATKAVITLQPPWVSIFQKENVTLWCEGPHLPGDSSTQWFINGTAVQISTPSYSIPEASFQDSGEYRCQIGSSMPSDPVQLQIHNDWLLLQASRRVLTEGEPLALRCHGWKNKLVYNVVFYRNGKSFQFSSDSEVAILKTNLSHSGIYHCSGTGRHRYTSAGVSITVKELFTTPVLRASVSSPFPEGSLVTLNCETNLLLQRPGLQLHFSFYVGSKILEYRNTSSEYHIARAEREDAGFYWCEVATEDSSVLKRSPELELQVLGPQSSAP | – | – | 45.2 | 11.1 | 54.1
mouse FcγRIV (receptor) GLQKAVVNLDPKWVRVLEEDSVTLRCQGTFSPEDNSIKWFHNESLIPHQDANYVIQSARVKDSGMYRCQTALSTISDPVQLEVHMGWLLLQTTKWLFQEGDPIHLRCHSWQNRPVRKVTYLQNGKGKKYFHENSELLIPKATHNDSGSYFCRGLIGHNNKSSASFRISLGDPGSPSMFPPWHQ | – | – | 42.6 | 54.3 | 41.8
